Measurements reported in publication doi:10.1101/172809 (bioRxiv, 2017).

B1: Dynamin-Related Protein 1 (DRP1), wild type, full length, isoform 2 (enzyme, human, UniProt O00429-3 1-710, looked up)
chain: MEALIPVINKLQDVFNTVGADIIQLPQIVVVGTQSSGKSSVLESLVGRDLLPRGTGIVTRRPLILQLVHVSQEDKRKTTGEENGVEAEEWGKFLHTKNKLYTDFDEIRQEIENETERISGNNKGVSPEPIHLKIFSPNVVNLTLVDLPGMTKVPVGDQPKDIELQIRELILRFISNPNSIILAVTAANTDMATSEALKISREVDPDGRRTLAVITKLDLMDAGTDAMDVLMGRVIPVKLGIIGVVNRSQLDINNKKSVTDSIRDEYAFLQKKYPSLANRNGTKYLARTLNRLLMHHIRDCLPELKTRINVLAAQYQSLLNSYGEPVDDKSATLLQLITKFATEYCNTIEGTAKYIETSELCGGARICYIFHETFGRTLESVDPLGGLNTIDILTAIRNATGPRPALFVPEVSFELLVKRQIKRLEEPSLRCVELVHEEMQRIIQHCSNYSTQELLRFPKLHDAIVEVVTCLLRKRLPVTNEMVHNLVAIELAYINTKHPDFADACGLMNNNIEEQRRNRLARELPSAVSRDKLIQDSRRETKNVASGGGGVGDGVQEPTTGNWRGMLKTSKAEELLAEEKSKPIPIMPASPQKGHAVNLLDVPVPVARKLSAREQRDCEVIERLIKSYFLIVRKNIQDSVPKAVMHFLVNHVKDTLQSELVGQLYKSSLLDDLLTESEDMAQRRKEAADMLKALQGASQIIAEIRETHLW

Tests used:
cryo-EM structure = target: the molecule itself; assay: cryo-EM structure
SEC = target: the molecule itself; assay: SEC
[1] = target: B1; assay: cryo-EM structure

Binder: B1
- binding result (cryo-EM structure): binds

B2: DRP1_(G362D), full length, disease-associated mutant (enzyme, human, UniProt O00429-3 1-710, looked up)
chain: MEALIPVINKLQDVFNTVGADIIQLPQIVVVGTQSSGKSSVLESLVGRDLLPRGTGIVTRRPLILQLVHVSQEDKRKTTGEENGVEAEEWGKFLHTKNKLYTDFDEIRQEIENETERISGNNKGVSPEPIHLKIFSPNVVNLTLVDLPGMTKVPVGDQPKDIELQIRELILRFISNPNSIILAVTAANTDMATSEALKISREVDPDGRRTLAVITKLDLMDAGTDAMDVLMGRVIPVKLGIIGVVNRSQLDINNKKSVTDSIRDEYAFLQKKYPSLANRNGTKYLARTLNRLLMHHIRDCLPELKTRINVLAAQYQSLLNSYGEPVDDKSATLLQLITKFATEYCNTIEGTAKYIETSELCDGARICYIFHETFGRTLESVDPLGGLNTIDILTAIRNATGPRPALFVPEVSFELLVKRQIKRLEEPSLRCVELVHEEMQRIIQHCSNYSTQELLRFPKLHDAIVEVVTCLLRKRLPVTNEMVHNLVAIELAYINTKHPDFADACGLMNNNIEEQRRNRLARELPSAVSRDKLIQDSRRETKNVASGGGGVGDGVQEPTTGNWRGMLKTSKAEELLAEEKSKPIPIMPASPQKGHAVNLLDVPVPVARKLSAREQRDCEVIERLIKSYFLIVRKNIQDSVPKAVMHFLVNHVKDTLQSELVGQLYKSSLLDDLLTESEDMAQRRKEAADMLKALQGASQIIAEIRETHLW
- stoichiometry N (SEC): 2

B3: Mitochondrial Dynamics 49, MID49_(126-454) (domain or fragment, human, UniProt Q96C03-1 126-454, looked up)
chain: TLQERLLAFERDRVTIPAAQVALAKQLAGDIALELQAYFRSKFPELPFGAFVPGGPLYDGLQAGAADHVRLLVPLVLEPGLWSLVPGVDTVARDPRCWAVRRTQLEFCPRGSSPWDRFLVGGYLSSRVLLELLRKALAASVNWPAIGSLLGCLIRPSMASEELLLEVQHERLELTVAVLVAVPGVDADDRLLLAWPLEGLAGNLWLQDLYPVEAARLRALDDHDAGTRRRLLLLLCAVCRGCSALGQLGRGHLTQVVLRLGEDNVDWTEEALGERFLQALELLIGSLEQASLPCHFNPSVNLFSSLREEEIDDIGYALYSGLQEPEGLL
- binding result [1]: binds
